# Values of other authors as cited in PMC6752817, “Identification and characterization of a novel heparan sulfate-binding domain in Activin A longest variants and implications for function” (PLoS ONE, 2019).
# B1: activin A (protein, UniProt P08476 311-426, looked up)
# Inhibin beta A chain: GLECDGKVNICCKKQFFVSFKDIGWNDWIIAPSGYHANYCEGECPSHIAGTSGSSLSFHSTVINHYRMRGHSPFANLKSCCVPTKLRPMSMLYYDDGQNIIKKDIQNMIVEECGCS
# modifications: Inhibin beta A chain
# Tested on: mutant ALK2
# Settings: ref [52]; cited from earlier work
# From the text: In the musculoskeletal research field, interest in Act A biology has been re-invigorated by recent evidence of its pathogenic roles in the pediatric congenital disorder Fibrodysplasia Ossificans Progressiva (FOP). FOP is characterized by episodic formation of extraskeletal cartilage and bone tissue–a process collectively termed heterotopic ossification (HO)—at multiple sites, eventually involving much of the body. HO is preceded by local inflammation and over time, the accumulated ectopic tissue causes multiple health problems and impediments—including skeletal deformities, chron ...
molecule,measurement,value
B1,pSMAD1/5/8 signaling through mutant ALK2,elicits pSMAD1/5/8 signaling
